From article PMC4655416 come the findings set out here.

The target of assay [1] is CeHsp90-MC (middle and C-terminal domains of C. elegans Hsp90) (C. elegans). The assay is described as follows: AUC; sedimentation velocity with UV/VIS absorbance optics (OD280); PPH-5 titrated to a constant concentration of CeHsp90 (4 μM) or CeHsp90-MC (3.5 μM); global fit to sequential binding of a first and second PPH-5.
Assay [2] shares this target.

B1: protein phosphatase 5 from C. elegans (PPH-5) (enzyme)
chain: MAATITDDIVATVLESIEEKSYEDEKEKAGMIKDEANQFFKDQVYDVAADLYSVAIEIHPTAVLYGNRAQAYLKKELYGSALEDADNAIAIDPSYVKGFYRRATANMALGRFKKALTDYQAVVKVCPNDKDARAKFDECSKIVRRQKFEAAISTDHDKKTVAETLDINAMAIEDSYDGPRLEDKITKEFVLQLIKTFKNQQKLHKKYAFKMLLEFYNYVKSLPTMVEITVPTGKKFTICGDVHGQFYDLCNIFEINGYPSETNPYLFNGDFVDRGSFSVETIFTMIGFKLLYPNHFFMSRGNHESDVMNKMYGFEGEVKAKYTQQMCDMFTETFCWLPLCHLINEKIFVCHGGLFKEDGVTLEDIRKTDRNRQPPDEGIMCDLLWSDPQPINGRSPSKRGVGCQFGPDVTSKWCETNGIEYVVRSHEVKPEGYEMHHNGQCFTVFSAPNYCDQMNNKGAFITITGDNLTPRFTPFDAVPHPKLPPMAYANSLFGFN
In assay [1], B1 showed a stoichiometry N (PPH-5 per CeHsp90-MC dimer) of 2. Also, the kcat of PPH-5 towards the model peptide KRpTIRR (50 μM) with 3 μM Hsp90-MC in assay [2] came out at 0.161 s⁻¹.
